The text below walks through data of the supplement of paper PMC10567573.

B1: NCK2 (parent)
chain: YTGPSSSGRFAGREWYYGNVTRHQ
B2: SPOPL (parent)
chain: PDDKLTLFCEVSVVQDSVNISGHT
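Also: lentivirally expressed fusions sorted by FACS into six bins by GFP to DsRed ratio, PSI derived from sequencing read proportions per bin multiplied by bin number.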

Variants of B1 are the subject of the first data set. The data set is described as follows: protein stability index of a GFP-peptide fusion (GPS, HEK-293T) (PSI 1-6); higher = more stable. To be noted: c terminus: a fixed tail appended.
Turning to NTGPSSSGRFAGREWYYGNVTRHQ [Y1N], the protein stability index turned out to be 2.73.
Same read-out and setting: next, HTGPSSSGRFAGREWYYGNVTRHQ [Y1H]: 2.48; TTGPSSSGRFAGREWYYGNVTRHQ [Y1T]: 3.08; CTGPSSSGRFAGREWYYGNVTRHQ [Y1C]: 2.01.
In the case of ETGPSSSGRFAGREWYYGNVTRHQ [Y1E], the protein stability index worked out at 3.28.
As to VTGPSSSGRFAGREWYYGNVTRHQ [Y1V], the protein stability index came out at 2.93.
With MTGPSSSGRFAGREWYYGNVTRHQ [Y1M], the protein stability index was 2.57.
For LTGPSSSGRFAGREWYYGNVTRHQ [Y1L], the protein stability index is 2.3.
Same read-out and setting: next, STGPSSSGRFAGREWYYGNVTRHQ [Y1S]: 2.12; ATGPSSSGRFAGREWYYGNVTRHQ [Y1A]: 3.25; WTGPSSSGRFAGREWYYGNVTRHQ [Y1W]: 2.66.
Turning to GTGPSSSGRFAGREWYYGNVTRHQ [Y1G], the protein stability index stood at 2.46.
Take DTGPSSSGRFAGREWYYGNVTRHQ [Y1D]: the protein stability index was determined as 3.3.
For ITGPSSSGRFAGREWYYGNVTRHQ [Y1I], the protein stability index amounted to 2.08.
Still for that read-out and setting: next, KTGPSSSGRFAGREWYYGNVTRHQ [Y1K]: 2.75; FTGPSSSGRFAGREWYYGNVTRHQ [Y1F]: 1.47; PTGPSSSGRFAGREWYYGNVTRHQ [Y1P]: 3.8.
For the variant QTGPSSSGRFAGREWYYGNVTRHQ [Y1Q], the protein stability index came out at 2.96.
On to RTGPSSSGRFAGREWYYGNVTRHQ [Y1R], for which the protein stability index was determined as 2.55.
On to YHGPSSSGRFAGREWYYGNVTRHQ [T2H], for which the protein stability index came out at 1.88.
Regarding YEGPSSSGRFAGREWYYGNVTRHQ [T2E], the protein stability index came out at 2.82.
For the variant YMGPSSSGRFAGREWYYGNVTRHQ [T2M], the protein stability index was 2.62.
The same measure, in the same setting: next, YAGPSSSGRFAGREWYYGNVTRHQ [T2A]: 2.62; YRGPSSSGRFAGREWYYGNVTRHQ [T2R]: 1.67.
In the case of YLGPSSSGRFAGREWYYGNVTRHQ [T2L], the protein stability index was 1.7.
Turning to YDGPSSSGRFAGREWYYGNVTRHQ [T2D], the protein stability index came out at 2.63.
Still for that read-out and setting: with YFGPSSSGRFAGREWYYGNVTRHQ [T2F] the figure was 2.04; with YCGPSSSGRFAGREWYYGNVTRHQ [T2C], 2.06.
Same read-out and setting: with YGGPSSSGRFAGREWYYGNVTRHQ [T2G] the figure was 2.44.
On the same count and under the same terms, with YQGPSSSGRFAGREWYYGNVTRHQ [T2Q] the figure was 1.5; with YPGPSSSGRFAGREWYYGNVTRHQ [T2P], 3.3; with YIGPSSSGRFAGREWYYGNVTRHQ [T2I], 1.79.
YKGPSSSGRFAGREWYYGNVTRHQ [T2K]: the protein stability index was 2.27.
The same measure, in the same setting: next, YNGPSSSGRFAGREWYYGNVTRHQ [T2N]: 2.19.

Variants of B2 are the subject of a further data set. The data set is described as above. To be noted: c terminus: a fixed tail appended.
Consider PDDKLTLFCEVSVVQDSANISGHT [V18A], for which the protein stability index is 2.83.
As to PDDKLTLFCEVSVVQDSDNISGHT [V18D], the protein stability index is 3.67.
Consider PDDKLTLFCEVSVVQDSMNISGHT [V18M], for which the protein stability index worked out at 2.05.
Still for that read-out and setting: with PDDKLTLFCEVSVVQDSRNISGHT [V18R] the figure was 2.03.
Regarding PDDKLTLFCEVSVVQDSGNISGHT [V18G], the protein stability index is 2.83.
Turning to PDDKLTLFCEVSVVQDSINISGHT [V18I], the protein stability index was 2.09.
Still for that read-out and setting: next, PDDKLTLFCEVSVVQDSYNISGHT [V18Y]: 1.77; PDDKLTLFCEVSVVQDSSNISGHT [V18S]: 2.82.
Turning to PDDKLTLFCEVSVVQDSQNISGHT [V18Q], the protein stability index is 3.27.
Take PDDKLTLFCEVSVVQDSNNISGHT [V18N]: the protein stability index amounted to 2.99.
With PDDKLTLFCEVSVVQDSKNISGHT [V18K], the protein stability index worked out at 2.69.
Regarding PDDKLTLFCEVSVVQDSPNISGHT [V18P], the protein stability index amounted to 2.7.
PDDKLTLFCEVSVVQDSHNISGHT [V18H]: the protein stability index stood at 2.6.
PDDKLTLFCEVSVVQDSFNISGHT [V18F]: the protein stability index worked out at 1.73.
On to PDDKLTLFCEVSVVQDSTNISGHT [V18T], for which the protein stability index worked out at 2.81.
With PDDKLTLFCEVSVVQDSLNISGHT [V18L], the protein stability index amounted to 1.57.
Same read-out and setting: next, PDDKLTLFCEVSVVQDSCNISGHT [V18C]: 1.85; PDDKLTLFCEVSVVQDSENISGHT [V18E]: 3.04; PDDKLTLFCEVSVVQHSVNISGHT [D16H]: 1.15.
On the same count and under the same terms, next, PDDKLTLFCEVSVVQASVNISGHT [D16A]: 2.28.
Same read-out and setting: next, PDDKLTLFCEVSVVQESVNISGHT [D16E]: 1.33; PDDKLTLFCEVSVVQQSVNISGHT [D16Q]: 1.27; PDDKLTLFCEVSVVQRSVNISGHT [D16R]: 1.21.
As to PDDKLTLFCEVSVVQTSVNISGHT [D16T], the protein stability index was determined as 1.53.
As for PDDKLTLFCEVSVVQGSVNISGHT [D16G], the protein stability index came out at 2.01.
Still for that read-out and setting: with PDDKLTLFCEVSVVQPSVNISGHT [D16P] the figure was 1.49.
For the variant PDDKLTLFCEVSVVQVSVNISGHT [D16V], the protein stability index is 3.7.
In the case of PDDKLTLFCEVSVVQSSVNISGHT [D16S], the protein stability index amounted to 2.32.
The same measure, in the same setting: next, PDDKLTLFCEVSVVQWSVNISGHT [D16W]: 2.43; PDDKLTLFCEVSVVQKSVNISGHT [D16K]: 1.66; PDDKLTLFCEVSVVQNSVNISGHT [D16N]: 1.8.
As for PDDKLTLFCEVSVPQDSVNISGHT [V14P], the protein stability index worked out at 3.59.
On the same count and under the same terms, next, PDDKLTLFCEVSVRQDSVNISGHT [V14R]: 2.74; PDDKLTLFCEVSVYQDSVNISGHT [V14Y]: 1.67.
On to PDDKLTLFCEVSVTQDSVNISGHT [V14T], for which the protein stability index was determined as 1.86.
As for PDDKLTLFCEVSVQQDSVNISGHT [V14Q], the protein stability index was determined as 2.7.
The same measure, in the same setting: next, PDDKLTLFCEVSVWQDSVNISGHT [V14W]: 1.81; PDDKLTLFCEVSVSQDSVNISGHT [V14S]: 2.07; PDDKLTLFCEVSVVFDSVNISGHT [Q15F]: 3.28.
On to PDDKLTLFCEVSVVPDSVNISGHT [Q15P], for which the protein stability index came to 3.1.
Consider PDDKLTLFCEVSVVDDSVNISGHT [Q15D], for which the protein stability index was determined as 3.19.
Still for that read-out and setting: next, PDDKLTLFCEVSVVEDSVNISGHT [Q15E]: 3.4.
Regarding PDDKLTLFCEVSVVKDSVNISGHT [Q15K], the protein stability index stood at 2.12.
The same measure, in the same setting: next, PDDKLTLFCEVSVVNDSVNISGHT [Q15N]: 1.97; PDDKLTLFCEVSVVTDSVNISGHT [Q15T]: 2.31; PDDKLTLFCEVSVVHDSVNISGHT [Q15H]: 1.28.
In the case of PDDKLTLFCEVSVVADSVNISGHT [Q15A], the protein stability index was 1.71.
The same measure, in the same setting: next, PDDKLTLFCEVSVVGDSVNISGHT [Q15G]: 1.97.
Still for that read-out and setting: with PDDKLTLFCEVSVVRDSVNISGHT [Q15R] the figure was 1.44; with PDDKLTLFCEVSVVSDSVNISGHT [Q15S], 2.44.
Still for that read-out and setting: next, PDDKLTLFCEVSVVQDSVNKSGHT [I20K]: 2.56.
PDDKLTLFCEVSVVQDSVNCSGHT [I20C]: the protein stability index is 2.86.
Same read-out and setting: next, PDDKLTLFCEVSVVQDSVNLSGHT [I20L]: 2.56; PDDKLTLFCEVSVVQDSVNSSGHT [I20S]: 3.04; PDDKLTLFCEVSVVQDSVNHSGHT [I20H]: 3.43.
Still for that read-out and setting: with PDDKLTLFCEVSVVQDSVNESGHT [I20E] the figure was 3.42.
For PDDKLTLFCEVSVVQDSVNPSGHT [I20P], the protein stability index came out at 2.59.
On the same count and under the same terms, next, PDDKLTLFCEVSVVQDSVNGSGHT [I20G]: 3.21.
PDDKLTLFCEVSVVQDSVNWSGHT [I20W]: the protein stability index is 2.04.
On the same count and under the same terms, with PDDKLTLFCEVSVVQDSVNNSGHT [I20N] the figure was 3.08.
